molecular target: T1, HLA-B*44:05 (human); assay: UV peptide exchange, anti-b2m ELISA
T1 construct: also called peptide-receptive MHC class I molecule
How it was run: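 Peptide-receptive HLA-B*44:05 monomers after UV-induced exchange were diluted 100-fold and captured on streptavidin-coated plates for 1 h at 37 °C. Bound complexes were detected with 2 µg/ml HRP-anti-β2m (1 h, 37 °C) and TMB, read at 450 nm. β2m signal reflects peptide-stabilized complex yield.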

**Q.** Which peptide exchange yield does the source give for LEWQNSSSM here?
**A.** 50 to 75%

**Q.** How did the peptide exchange yield turn out when SETPTLQGL was run?
**A.** 50 to 75%

**Q.** With RELVHMINW as the binder, how does the peptide exchange yield read?
**A.** > 75%

**Q.** Which peptide exchange yield does the source give for QEVNISLHY here?
**A.** > 75%

**Q.** With VEVIPEGAML as the binder, how does the peptide exchange yield read?
**A.** 50 to 75%

**Q.** AEMKFYVVI was tested. Which peptide exchange yield did it give?
**A.** 50 to 75%

**Q.** For NEVKEIKGY, which peptide exchange yield is on record?
**A.** 50 to 75%

**Q.** For GELAPSHGL, which peptide exchange yield is on record?
**A.** 50 to 75%

**Q.** How did the peptide exchange yield turn out when HELESENKKW was run?
**A.** 50 to 75%

**Q.** How did the peptide exchange yield turn out when SENKKWVEF was run?
**A.** 20 to 50%

**Q.** Which peptide exchange yield does the source give for SEFDLEQVW here?
**A.** > 75%

**Q.** How did the peptide exchange yield turn out when DEIRVFGY was run?
**A.** 20 to 50%

**Q.** Which peptide exchange yield does the source give for AEYQAAILHL here?
**A.** 50 to 75%

**Q.** LEQASRIWSW was tested. Which peptide exchange yield did it give?
**A.** > 75%

**Q.** With EEIENLQAQF as the binder, how does the peptide exchange yield read?
**A.** 20 to 50%

**Q.** How did the peptide exchange yield turn out when LENPHVQSV was run?
**A.** 50 to 75%

**Q.** Which peptide exchange yield does the source give for SEVLLTSISTF here?
**A.** > 75%

**Q.** For LEWQHPSSW, which peptide exchange yield is on record?
**A.** > 75%

**Q.** With EEMLENVSL as the binder, how does the peptide exchange yield read?
**A.** 50 to 75%

**Q.** How did the peptide exchange yield turn out when EEGRVYVY was run?
**A.** 20 to 50%

**Q.** For QEDELVKIRKY, which peptide exchange yield is on record?
**A.** 50 to 75%

**Q.** AETEEGIYW was tested. Which peptide exchange yield did it give?
**A.** > 75%

**Q.** TEIMEKTTL was tested. Which peptide exchange yield did it give?
**A.** 50 to 75%

**Q.** Which peptide exchange yield does the source give for SETSTGTSV here?
**A.** 20 to 50%

**Q.** For IEQGRVVLW, which peptide exchange yield is on record?
**A.** > 75%

**Q.** With TEAVLNRY as the binder, how does the peptide exchange yield read?
**A.** 20 to 50%

**Q.** AELMDKPLTF was tested. Which peptide exchange yield did it give?
**A.** 50 to 75%

**Q.** For TEFHGGLHY, which peptide exchange yield is on record?
**A.** 50 to 75%

**Q.** Which peptide exchange yield does the source give for NEFRRKLTF here?
**A.** 50 to 75%

**Q.** How did the peptide exchange yield turn out when DEMENLLTY was run?
**A.** > 75%

**Q.** Which peptide exchange yield does the source give for EDASLMGLY here?
**A.** 20 to 50%

**Q.** Which peptide exchange yield does the source give for SEVEYINKY here?
**A.** 50 to 75%

**Q.** For EECDKAFHF, which peptide exchange yield is on record?
**A.** 50 to 75%

**Q.** With EECDKAYSF as the binder, how does the peptide exchange yield read?
**A.** 20 to 50%

**Q.** With NESGKAFNY as the binder, how does the peptide exchange yield read?
**A.** > 75%

**Q.** DEVRFFKGNKY was tested. Which peptide exchange yield did it give?
**A.** 20 to 50%

**Q.** For EECGKAFKKF, which peptide exchange yield is on record?
**A.** 50 to 75%

**Q.** Which peptide exchange yield does the source give for TEFAVKLKI here?
**A.** 50 to 75%

**Q.** Which peptide exchange yield does the source give for KEKVPGITI here?
**A.** 50 to 75%

**Q.** Which peptide exchange yield does the source give for KELEERMLHW here?
**A.** > 75%

**Q.** For EEVLLANALW, which peptide exchange yield is on record?
**A.** 50 to 75%

**Q.** NEIGQELTGQEW was tested. Which peptide exchange yield did it give?
**A.** > 75%

**Q.** EEYKFPSLF was tested. Which peptide exchange yield did it give?
**A.** 50 to 75%

**Q.** REDPIVYEI was tested. Which peptide exchange yield did it give?
**A.** 20 to 50%

**Q.** Which peptide exchange yield does the source give for NEAEWQEIL here?
**A.** 50 to 75%

**Q.** With HEATFGEKRF as the binder, how does the peptide exchange yield read?
**A.** 50 to 75%

**Q.** How did the peptide exchange yield turn out when AEAMGKFKQCF was run?
**A.** 50 to 75%

**Q.** With SESDGIEQL as the binder, how does the peptide exchange yield read?
**A.** 50 to 75%

**Q.** With AEDARGWTA as the binder, how does the peptide exchange yield read?
**A.** 20 to 50%

**Q.** Which peptide exchange yield does the source give for QELFLQEVRM here?
**A.** 50 to 75%

**Q.** For AENRVGKMEA, which peptide exchange yield is on record?
**A.** 20 to 50%

**Q.** For EECGKAFRVF, which peptide exchange yield is on record?
**A.** 50 to 75%

**Q.** How did the peptide exchange yield turn out when EECGKAFSVF was run?
**A.** 50 to 75%

**Q.** With QELMAFSFAGL as the binder, how does the peptide exchange yield read?
**A.** > 75%

**Q.** With SELNPLALY as the binder, how does the peptide exchange yield read?
**A.** 50 to 75%

**Q.** Which peptide exchange yield does the source give for EEMERDLDMY here?
**A.** 50 to 75%

**Q.** LDGIPTAGW was tested. Which peptide exchange yield did it give?
**A.** 50 to 75%

**Q.** LEHPFLVNLW was tested. Which peptide exchange yield did it give?
**A.** > 75%

**Q.** For REVDPDDSYVF, which peptide exchange yield is on record?
**A.** 50 to 75%

**Q.** For EESDYITHY, which peptide exchange yield is on record?
**A.** 50 to 75%

**Q.** Which peptide exchange yield does the source give for GEVQENYKL here?
**A.** 50 to 75%

**Q.** Which peptide exchange yield does the source give for VEIVTIPSL here?
**A.** 50 to 75%

**Q.** DEQRRQNVAY was tested. Which peptide exchange yield did it give?
**A.** 20 to 50%

**Q.** GEYNKHAQLW was tested. Which peptide exchange yield did it give?
**A.** > 75%

**Q.** Which peptide exchange yield does the source give for TESIGAQIY here?
**A.** 50 to 75%

**Q.** TEVSVLLLTF was tested. Which peptide exchange yield did it give?
**A.** 50 to 75%

**Q.** How did the peptide exchange yield turn out when SETILAVGL was run?
**A.** 50 to 75%

**Q.** Which peptide exchange yield does the source give for SEILRVTLY here?
**A.** 50 to 75%

**Q.** Which peptide exchange yield does the source give for AEDFVWAQW here?
**A.** > 75%

**Q.** How did the peptide exchange yield turn out when EENTGKTYF was run?
**A.** 50 to 75%

**Q.** With MELLFLDTF as the binder, how does the peptide exchange yield read?
**A.** 20 to 50%

**Q.** AEIIRYIF was tested. Which peptide exchange yield did it give?
**A.** 10 to 20%

**Q.** With IEQADWPEI as the binder, how does the peptide exchange yield read?
**A.** 20 to 50%
